Data from a protein production outcome set (Wang et al. 2014).

Assay: label from the status in PepcDB records

Row | Sequence | protein production
1 | MVDNYEYQVGASLPPDAPSYVVRKADSDFYQALKAGKYCYVFNSRQMGKSSLKVRVMQRLVNEGVACSSIDVSGQGSKDNVTQEQWYTGIVSKIVKDLQIAKPIEFRRTWWRDRHDISPVQRFDEFIEDVLLSSIQRHIIIFVDEIDSTLSLGFASEDFFALIRSCYNKRAENPAYKRLTFALLGVATPGDLIQDKTRTPFNIGEAIELDGFKIHDIEPLAKGLAGKVENPQAVMQEVLAWTGGQPFLTQRVCELLGKALSIEKRDFRSVDENQIIELVKEIIHNQIIDNWEANDKQEHLKTIRDRLLISEEISVALLGLYQQILQQVEMTADSSFEQMRLRLTGLVVQQQGKLRVYNQIYRNVFDLSWVENELGKLRFYADKLRAWVESNYQDNTCLLWGEDLEKARVWADGRKLSDVDYRFLSASVEAELNQKVVKAETRQNQALQEEEKAKQRLTEVERKINIGGGILALFVVGAIVAAIGAISANIERQQAQVVTDLERSSADLLRLRGNVGLDNLVEAMRSVKQLKQLVKNGNQLKDYPTVSPILALHNTLEYNREINQLKDDRRVQKQVFSPDTKIVANISDDGTTKLLNLQTGTITTLKHDKKVNNVAFSPNGQIVATASDDGTAKLWNLQGGKIATFKHNKEVNDVAFSPDGKTVGTASWDTAKLWNLQGGEIATLQYDSLVQNIVFSPDGKNVAIASYDSDVKLWNLQGKEIATIIHNKMTKYLSVVNNLFFSPDGKVVATTSRRDATTKLWNLQGKEIATFKYYPDIGIKNSVFSPNGKVVAIYSDDKTVNLYNLQGNTIATLKHNDKVEDIVFSPDGNTVATVSSYVHDGTVNLWNLKGNIIGTFKHQGLFQDISRLEFSPDGQTIATALLDNTAHLWNLQGKKIAIFTHYSQVLNLAFSPDGRTITTASSDGTAKLWNLQGGNIRILKHNDQINNIVFSPDGKTVATTSYDGTAKLWNLQKGEIVTLKHDGVVNDAVFSPDGKTIATTTSSDKTVKLWNLQGQLIATLKHKYEPDKEVVFSPDSNIIATSDDTAKLWNLQGQLIATLTNEGGVREVIFNPDGKSVLTTSYENAKLWNLEGQEIATFKHKHLGEVVFSPDGHTVATASVYRDSDISGSVKLWNLKGEEIITLQHGSFSDVLFSPDGKTIATVSTLSNTAKLWNLQGREIATLTHDGWINHISFSPDGKTIGIRSGDKTVKLWNLRGQEIATLKHNSSTIVSDPIFSPDGKTIATVSLDRTVRLWTEVRDGSWQQFAEYQSRRVVFSPDNKLIAIEGNYFVQLRRVQSLDSLLARGCNDLKEYLASRPDLRKEICPDNK | failed
2 | IKQMLLDWCRAKTRGYEHVDIQNFSSSWSDGMAFCALVHNFFPEAFDYGQLSPQNRRQNFEVAFSSAETHADCPQLLDTEDMVRLREPDWKCVYTYIQEFYRCLVQKGLVKTKKS | not failed
3 | MYGIQTSASLPLTRPQALETQAAAPQSDAPDASAGQTRAAPQGSAAPALAAARAKADELGQAAREVRASVERQTAYETRLAAQRSAAAFSGGEPPQARREAPGAELDEARNAQTVSARLFEGNLKGVAQSGHAMSAEQKQALQSGLDDVFADAPPQARSAGAPMLYSANAAAGQGMADSDLWDMISDQIGKIKDNYLGVYENVVGQYTDFYKAFSDILSQMANWIKPGGDGNKVKLNVDALKAALEKLKKDFSLGDNLDNKKAVLFPAQSKDGGIQGGSESDARKWAKEMGLPDAPPPGFSCVQKAADGNWVVVVDMTPIDTMIRDVGALGSGTELELDNAKFQAWQSGFKAQEENLKNTLQTLTQKYSNANSLFDNLVKVLSSTISSCLETAKSFLQILEHHHHHH | not failed
4 | MQPFLFSDSSACLHVSPAMKISVIIPVYNDPSGIDATLRSVMEQDHSDYEVIPVDNNSTDRTPAVIREWAHQYPNRIRPASEHDTQSSYAARNAGIEAAQGEILVFIDADMAAPSYWLTDVHEAFSASEADYLGYEVDVYVPEDEAGFWGWYDTVMGLPSRYHYDEKQFVPTSCLAVRRAVFEKVGRFDETAVSGGDKEFGERVHRHPDLTTAFRDDIVVCHPARTTFEAHRAKALRVGRGLARLCDPSTASGDTTSVLIELLLHAVPPDPRRVAEQAHDVPAHQFLRLYIADWILRYLRLYGALTYCRKEAPE | failed
